Assay results as given in the supplement of paper PMC9112550, “Optimization of the antimicrobial peptide Bac7 by deep mutational scanning” (BMC Biology, 2022).

Tested on: Escherichia coli TOP10
Assay: shrunken log2 fold change of peptide-encoding DNA abundance (4.5 h post-induction vs induction); higher = less antimicrobial activity (less host growth inhibition)
Settings: time post-induction: 4.5 h; library: site-saturation at positions 5, 18, 19, 20
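Note: peptides expressed intracellularly from a pBAD plasmid library in pooled LB shake-flask culture, induced with 0.3% L-arabinose, DNA abundance read by NGS, three biological replicates, DESeq2 with apeglm shrinkage.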

Row | Sequence | shrunken log2 fold change
1 | RRIRMRPPRLPRPRPRPGFMPRP | 0.0795
2 | RRIRMRPPRLPRPRPRPGFNPRP | -0.106
3 | RRIRMRPPRLPRPRPRPGHQPRP | 0.568
4 | RRIRMRPPRLPRPRPRPGKFPRP | 0.0419
5 | RRIRMRPPRLPRPRPRPGKWPRP | 0.204
6 | RRIRMRPPRLPRPRPRPGLCPRP | 1.79
7 | RRIRMRPPRLPRPRPRPGMAPRP | 1.19
8 | RRIRMRPPRLPRPRPRPGMGPRP | 0.902
9 | RRIRMRPPRLPRPRPRPGNVPRP | -0.0105
10 | RRIRMRPPRLPRPRPRPGPCPRP | 0.915
11 | RRIRMRPPRLPRPRPRPGQKPRP | 0.142
12 | RRIRMRPPRLPRPRPRPGRKPRP | 1.32
13 | RRIRMRPPRLPRPRPRPGRQPRP | -0.00182
14 | RRIRMRPPRLPRPRPRPGSKPRP | 0.479
15 | RRIRMRPPRLPRPRPRPGSTPRP | 0.292
16 | RRIRMRPPRLPRPRPRPGTRPRP | 0.675
17 | RRIRMRPPRLPRPRPRPGTYPRP | -0.163
18 | RRIRMRPPRLPRPRPRPGVDPRP | 1.68
19 | RRIRMRPPRLPRPRPRPGWEPRP | 0.888
20 | RRIRMRPPRLPRPRPRPGYHPRP | 0.0695
21 | RRIRMRPPRLPRPRPRPGYLPRP | 0.0963
22 | RRIRMRPPRLPRPRPRPGYWPRP | 0.0653

Row | Sequence | shrunken log2 fold change
23 | RRIRMRPPRLPRPRPRPHCMPRP | -0.122
24 | RRIRMRPPRLPRPRPRPHEMPRP | 0.0891
25 | RRIRMRPPRLPRPRPRPHFCPRP | -0.0487
26 | RRIRMRPPRLPRPRPRPHFVPRP | -0.025
27 | RRIRMRPPRLPRPRPRPHGQPRP | 0.155
28 | RRIRMRPPRLPRPRPRPHGYPRP | 0.185
29 | RRIRMRPPRLPRPRPRPHIDPRP | 0.29
30 | RRIRMRPPRLPRPRPRPHIIPRP | -0.991
31 | RRIRMRPPRLPRPRPRPHKHPRP | -0.287
32 | RRIRMRPPRLPRPRPRPHKMPRP | 0.193
33 | RRIRMRPPRLPRPRPRPHMYPRP | -0.568
34 | RRIRMRPPRLPRPRPRPHPCPRP | 0.046
35 | RRIRMRPPRLPRPRPRPHPFPRP | 0.169
36 | RRIRMRPPRLPRPRPRPHPMPRP | 2.74
37 | RRIRMRPPRLPRPRPRPHRSPRP | -0.0246
38 | RRIRMRPPRLPRPRPRPHSSPRP | 0.0203
39 | RRIRMRPPRLPRPRPRPHTAPRP | -0.000764
40 | RRIRMRPPRLPRPRPRPHTPPRP | 0.137
41 | RRIRMRPPRLPRPRPRPHVDPRP | 0.51
42 | RRIRMRPPRLPRPRPRPHVVPRP | -0.0448
43 | RRIRMRPPRLPRPRPRPHVYPRP | -0.207
44 | RRIRMRPPRLPRPRPRPICQPRP | 3.43

Row | Sequence | shrunken log2 fold change
45 | RRIRMRPPRLPRPRPRPIDIPRP | 0.476
46 | RRIRMRPPRLPRPRPRPIDNPRP | 0.213
47 | RRIRMRPPRLPRPRPRPIDTPRP | 0.0143
48 | RRIRMRPPRLPRPRPRPIEVPRP | -0.00822
49 | RRIRMRPPRLPRPRPRPIFFPRP | 0.276
50 | RRIRMRPPRLPRPRPRPIFGPRP | 0.0873
51 | RRIRMRPPRLPRPRPRPIFYPRP | -0.106
52 | RRIRMRPPRLPRPRPRPIGDPRP | 0.0215
53 | RRIRMRPPRLPRPRPRPIHEPRP | -0.301
54 | RRIRMRPPRLPRPRPRPIHSPRP | -0.01
55 | RRIRMRPPRLPRPRPRPIILPRP | -0.0572
56 | RRIRMRPPRLPRPRPRPIITPRP | -0.512
57 | RRIRMRPPRLPRPRPRPILSPRP | 0.00774
58 | RRIRMRPPRLPRPRPRPIMLPRP | -0.351
59 | RRIRMRPPRLPRPRPRPIMVPRP | -0.0355
60 | RRIRMRPPRLPRPRPRPIMWPRP | -0.042
61 | RRIRMRPPRLPRPRPRPINRPRP | -0.0561
62 | RRIRMRPPRLPRPRPRPINYPRP | -0.22
63 | RRIRMRPPRLPRPRPRPIQMPRP | -0.0558
64 | RRIRMRPPRLPRPRPRPIVEPRP | 0.456
65 | RRIRMRPPRLPRPRPRPIWCPRP | -0.234
66 | RRIRMRPPRLPRPRPRPIWHPRP | -0.0798

Row | Sequence | shrunken log2 fold change
67 | RRIRMRPPRLPRPRPRPIWLPRP | 0.0637
68 | RRIRMRPPRLPRPRPRPIWNPRP | -0.0214
69 | RRIRMRPPRLPRPRPRPIWQPRP | -0.224
70 | RRIRMRPPRLPRPRPRPIWRPRP | 0.128
71 | RRIRMRPPRLPRPRPRPIYAPRP | 1.86
72 | RRIRMRPPRLPRPRPRPIYDPRP | -0.265
73 | RRIRMRPPRLPRPRPRPIYHPRP | -0.322
74 | RRIRMRPPRLPRPRPRPIYSPRP | -0.0833
75 | RRIRMRPPRLPRPRPRPKCMPRP | 0.745
76 | RRIRMRPPRLPRPRPRPKDCPRP | -0.0772
77 | RRIRMRPPRLPRPRPRPKECPRP | -0.0981
78 | RRIRMRPPRLPRPRPRPKFDPRP | 0.217
79 | RRIRMRPPRLPRPRPRPKFGPRP | -0.0062
80 | RRIRMRPPRLPRPRPRPKFTPRP | 0.313
81 | RRIRMRPPRLPRPRPRPKHPPRP | 0.612
82 | RRIRMRPPRLPRPRPRPKICPRP | -0.155
83 | RRIRMRPPRLPRPRPRPKINPRP | -0.194
84 | RRIRMRPPRLPRPRPRPKIQPRP | 0.158
85 | RRIRMRPPRLPRPRPRPKKDPRP | 0.942
86 | RRIRMRPPRLPRPRPRPKLGPRP | 0.597
87 | RRIRMRPPRLPRPRPRPKPEPRP | 0.0854
88 | RRIRMRPPRLPRPRPRPKPGPRP | 1.31

Row | Sequence | shrunken log2 fold change
89 | RRIRMRPPRLPRPRPRPKPRPRP | 1.63
90 | RRIRMRPPRLPRPRPRPKRLPRP | 0.0697
91 | RRIRMRPPRLPRPRPRPKSEPRP | 0.0246
92 | RRIRMRPPRLPRPRPRPKSLPRP | 0.171
93 | RRIRMRPPRLPRPRPRPKTPPRP | 3.35
94 | RRIRMRPPRLPRPRPRPKTSPRP | 0.641
95 | RRIRMRPPRLPRPRPRPKVTPRP | 0.209
96 | RRIRMRPPRLPRPRPRPKWDPRP | 0.68
97 | RRIRMRPPRLPRPRPRPKWRPRP | 0.797
98 | RRIRMRPPRLPRPRPRPKYMPRP | 0.00659
99 | RRIRMRPPRLPRPRPRPKYQPRP | 0.0592
100 | RRIRMRPPRLPRPRPRPKYRPRP | 0.0666
101 | RRIRMRPPRLPRPRPRPLAIPRP | 0.173
102 | RRIRMRPPRLPRPRPRPLGIPRP | 0.0188
103 | RRIRMRPPRLPRPRPRPLGQPRP | 0.738
104 | RRIRMRPPRLPRPRPRPLGWPRP | 1.32
105 | RRIRMRPPRLPRPRPRPLGYPRP | -0.264
106 | RRIRMRPPRLPRPRPRPLHAPRP | 1.29
107 | RRIRMRPPRLPRPRPRPLHHPRP | -0.0632
108 | RRIRMRPPRLPRPRPRPLHKPRP | 0.301
109 | RRIRMRPPRLPRPRPRPLHSPRP | 0.0835
